Reference: PMC3477478

Substrate: CC(=O)O
Experiment: purified protein
Details: 10 mM ATP, 0.47 mM HSCoA, 10 mM MgCl2, 120 mM hydroxylamine, 10 mM reduced glutathione, Tris/HCl pH 7.5, 37 °C, apparent Km

B1: K. stuttgartiensis ACS (kustc1128), AMP-forming acetyl-CoA synthetase (Candidatus Kuenenia stuttgartensis) (protein)
chain: MNKTEIINKHPEAFNLICYEDQHKNFSWETVKKELGVGGNKVNIAYEAIDKHATTWRKNKVALYWEGSDGTHLKYTFQELKILSDKCANMLQSLGVGKGDRVFLFLPRLPELFINMIAIAKLGAISGPMFSAFGPDAVRDRLQNSEAKVLITTPELKERVDAVLWELPKLERIVLVSVKEDYELEEGNVCYKTLMKDAPERFEMEWMDMEDPLYLLYTSGTTGKPKGITHVHNDMISYYITTKWSLDLRDDDIYWCTADPGWVTGTVYGMWGPWLNGVSMYIYDGRFDVNKWYEAIQSYKITVWYTAPTALRMLMKSGDYLVAQYDLESLRYICSVGEPLNPEVIKWGMNVYNLPIHDTWWQTETGSIMIANYPCIPIKPGSMGKPFPGIKAAIIDSEGNELPDGHHGILALKPGWPSMLRKVWGDEGRFNEYFNITGWYTTGDTAYKDEEGYFWFVGRADDVINTSGHRVGPFEVESALLEHRAVAEAGVIGKPDPERGEIIKAFIALKEGFKPSSELGEEIKKFIKHHLAAHAYPREIEFCENLPKTRSGKIMRRLLKAKDLGLPTGDISTLED
  Km: 200 µM
